These results are taken from the supplement of paper PMC10724198.

± gives the standard deviation of the averaged measurements.
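Note: PSI is a weighted mean of sequencing reads over stability bins, variants kept only with over 10 reads, mCherry proximal and sfGFP distal, peptide attached via GGGS linker.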

The test system of the series is Saccharomyces cerevisiae. The series can be described thus: protein stability index of tFT-peptide fusion (C-terminal peptide) (PSI (0-1 scale)); higher = more stable (slower turnover). The note with it: genetic background: wild type; temperature: 30 C. The protocol:
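Multiplexed protein stability (MPS) profiling in S. cerevisiae. Random 12-aa peptides (tFT-X12 library) are fused to the C-terminus of a sfGFP-mCherry tandem fluorescent timer, after mCherry and a GGGS linker. Cells are FACS-sorted into 8 mCherry/sfGFP bins and deep-sequenced. The protein stability index (PSI) is the read-weighted bin average, scaled from 0 (unstable) to 1 (stable). Only peptides with >10 reads are reported; cells were grown at 30 °C in SC-His with glucose.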
Sequence DEWAGKYLKTIA displayed a protein stability index of 0.702 ± 0.013.

In turn, DFILVRGWADLR displayed a protein stability index of 0.616 ± 0.059.

For the sequence DFKHKYREKKKF, the protein stability index is 0.615 ± 0.062.

DFLCHFCVIDEC registered a protein stability index of 0.653 ± 0.066.

For DFSLRCIAIPRV, the protein stability index turned out to be 0.651 ± 0.046.

DFVGCSGRGSFV returned a protein stability index of 0.72 ± 0.023.

On to DGASAARQGGAR, for which the protein stability index stood at 0.7171 ± 0.00082.

DGCLMEHSMQVG displayed a protein stability index of 0.656 ± 0.035.

DGCRLGDFLNRV: the protein stability index turned out to be 0.66 ± 0.042.

As to DGGHSFLSVARG, the protein stability index came to 0.644 ± 0.04.

Sequence DGGSGQGMLGGS showed a protein stability index of 0.628 ± 0.043.

Consider DGGVGGRAPRVR, for which the protein stability index turned out to be 0.744 ± 0.097.

Regarding DGKTKKKTRSLR, the protein stability index was 0.652 ± 0.034.

In the case of DGRMGAGVAGTG, the protein stability index worked out at 0.636 ± 0.069.

As for DGRRRHCYTITA, the protein stability index was found to be 0.661 ± 0.031.

Consider DGSMRKWGQGVG, for which the protein stability index came to 0.575 ± 0.067.

Turning to DHGRLFSNILIS, the protein stability index was found to be 0.645 ± 0.028.

On to DHRGSIWWAGSG, for which the protein stability index amounted to 0.702 ± 0.0034.

DIERRMEVINNG gave a protein stability index of 0.696 ± 0.032.

As to DIGSSGRVGGLG, the protein stability index came to 0.712 ± 0.031.

Sequence DIRGGDMGEWRE gave a protein stability index of 0.683 ± 0.023.

Consider DIVSGGLCVEVL, for which the protein stability index worked out at 0.643 ± 0.033.

DIVVGANISSIN: the protein stability index came to 0.641 ± 0.02.

With DKACVHPRTVTG, the protein stability index amounted to 0.703 ± 0.07.

Regarding DKATGARGKPPR, the protein stability index was found to be 0.649 ± 0.13.

With DKDWDHGSLCIP, the protein stability index came out at 0.692 ± 0.074.

DKKATTSIGIKK showed a protein stability index of 0.642 ± 0.07.

DKLDKKTLYLRK showed a protein stability index of 0.729 ± 0.061.

DKSEINKPTKGK came in with a protein stability index of 0.675 ± 0.021.

Regarding DKSIGIYIVRSH, the protein stability index is 0.731 ± 0.012.

In the case of DKVIIRKLRTSK, the protein stability index is 0.6863 ± 0.0051.

In turn, DKVKILVGVAGW registered a protein stability index of 0.607 ± 0.036.

As to DKVLQSLALKCK, the protein stability index is 0.508 ± 0.0074.

On to DLASPIFSRFSS, for which the protein stability index was 0.687 ± 0.036.

Consider DLCITNTMLFYL, for which the protein stability index was determined as 0.7025 ± 0.006.

As for DLGPLFVSWSTW, the protein stability index stood at 0.778 ± 0.021.

DLIRIRHACGFL yielded a protein stability index of 0.663 ± 0.048.

Regarding DLPYLYPRCLIS, the protein stability index was determined as 0.72683 ± 0.00028.

In turn, DLSDGHFSTASP gave a protein stability index of 0.678 ± 0.0069.

As for DLTQHRQHKPQK, the protein stability index was 0.735 ± 0.043.

DPFFPPYTPSPS showed a protein stability index of 0.782 ± 0.049.

As to DPFYRNFARREA, the protein stability index came out at 0.738 ± 0.026.

As for DPGTNGGCAPPV, the protein stability index turned out to be 0.676 ± 0.0014.

DPKNEINAKENI had a protein stability index of 0.689 ± 0.069.

In the case of DPPLPAHPDVPP, the protein stability index came to 0.771 ± 0.086.

Take DPQRQDVFRVSE: the protein stability index came out at 0.6823 ± 0.0021.

The sequence DPRPHPPFARSP returned a protein stability index of 0.699 ± 0.026.

In the case of DPRSPLSHSFLR, the protein stability index is 0.706 ± 0.044.

Sequence DPWGGTGKGHWG registered a protein stability index of 0.679 ± 0.0056.

DQATEPTPKPPD came in with a protein stability index of 0.643 ± 0.0079.

Take DQSSTIYKIIKE: the protein stability index was 0.672 ± 0.045.

Sequence DRCSRFRCFFVG had a protein stability index of 0.6 ± 0.031.

DRLGGDWMERGG registered a protein stability index of 0.688 ± 0.032.

Sequence DRPWAGGGLGVC gave a protein stability index of 0.621 ± 0.081.

DRRLGKHEYQPY had a protein stability index of 0.737 ± 0.022.

Consider DRRLPVSPPTIV, for which the protein stability index was 0.774 ± 0.12.

With DRRQLSVVARRT, the protein stability index worked out at 0.648 ± 0.027.

In turn, DRRRGMVRKTHV yielded a protein stability index of 0.659 ± 0.019.

For DRRVSYKKKKRK, the protein stability index was determined as 0.672 ± 0.14.

As for DRSRWMVVRGGG, the protein stability index came to 0.648 ± 0.13.

The sequence DSCGVFLGDFFQ returned a protein stability index of 0.727 ± 0.026.

Turning to DSDGILTEPTSW, the protein stability index was determined as 0.707 ± 0.0094.

Sequence DSDSVMPFERLM registered a protein stability index of 0.659 ± 0.0095.

The sequence DSFDLPCLFKVP yielded a protein stability index of 0.659 ± 0.078.
